biological target: CT-P59 monoclonal antibody (fully human IgG) (human); assay: BLI
Sequence (heavy, as listed by the source, chain 1 of 2): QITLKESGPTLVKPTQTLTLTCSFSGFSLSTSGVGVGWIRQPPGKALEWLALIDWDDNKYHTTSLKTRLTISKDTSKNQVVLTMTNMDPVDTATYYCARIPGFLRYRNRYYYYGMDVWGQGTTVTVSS
Sequence (light, as listed by the source, chain 2 of 2): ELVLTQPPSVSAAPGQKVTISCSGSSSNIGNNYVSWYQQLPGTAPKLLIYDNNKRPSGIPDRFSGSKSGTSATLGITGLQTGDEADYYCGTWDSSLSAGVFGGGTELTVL

Row | Substance | Kd [nM] | koff [s⁻¹] | kon [M⁻¹ s⁻¹]
1 | SARS-CoV-2 RBD V367F (commercial, Sino Biological) (from UniProt P0DTC2) (domain or fragment) | 0.292 | 0.000265 | 907000
2 | SARS-CoV-2 RBD W436R (commercial, Sino Biological) (from UniProt P0DTC2) (domain or fragment) | 0.221 | 0.00018 | 816000
3 | SARS-CoV-2 RBD N354D (commercial, Sino Biological) (from UniProt P0DTC2) (domain or fragment) | 0.294 | 0.000253 | 861000
4 | SARS-CoV-2 RBD K458R (commercial, Sino Biological) (from UniProt P0DTC2) (domain or fragment) | 0.236 | 0.000246 | 1.04e+06

Reference: PMC7803729
